Measurements as given in the Immune Epitope Database (IEDB).

How the values were obtained:
HLA-B*46:01 [1] = assay: IEDB peptide-MHC binding, purified MHC/direct/fluorescence; filed as Kd, often an IC50 or EC50 that approximates it; ≥ and ≤ were set here for values at or beyond the usual limits of such assays
HLA-B*27:03 [2] = assay: as above
HLA-A*02:01 [3] = assay: as above
HLA-A*02:03 = assay: as above
HLA-A*26:01 [4] = assay: as above
HLA-B*57:01 [5] = assay: as above
HLA-A*02:12 [6] = assay: as above
HLA-A*02:16 = assay: as above
HLA-A*02:19 = assay: as above
HLA-A*68:02 [7] = assay: as above; settings: source organism: Vibrio parahaemolyticus AQ3810
HLA-A*69:01 [8] = assay: as above
HLA-B*15:01 [9] = assay: as above
HLA-B*51:01 [10] = assay: as above; settings: source organism: Vibrio parahaemolyticus AQ3810
HLA-B*18:01 [11] = assay: as above
HLA-B*39:01 [12] = assay: as above
HLA-B*27:05 = assay: IEDB peptide-MHC binding, purified MHC/competitive/fluorescence; filed as Kd, often an IC50 or EC50 that approximates it; ≥ and ≤ were set here for values at or beyond the usual limits of such assays
HLA-A*11:01 = assay: IEDB peptide-MHC binding, purified MHC/direct/fluorescence; filed as Kd, often an IC50 or EC50 that approximates it; ≥ and ≤ were set here for values at or beyond the usual limits of such assays
HLA-A*03:01 [13] = assay: IEDB peptide-MHC binding, purified MHC/competitive/fluorescence; filed as Kd, often an IC50 or EC50 that approximates it; ≥ and ≤ were set here for values at or beyond the usual limits of such assays
HLA-A*31:01 = assay: as above
HLA-A*03:01 [14] = assay: IEDB peptide-MHC binding, purified MHC/direct/fluorescence; filed as Kd, often an IC50 or EC50 that approximates it; ≥ and ≤ were set here for values at or beyond the usual limits of such assays
HLA-C*03:03 = assay: as above; settings: source organism: Campylobacter jejuni subsp. jejuni NCTC 11168 = ATCC 700819
HLA-C*05:01 = assay: as above; settings: source organism: Campylobacter jejuni subsp. jejuni NCTC 11168 = ATCC 700819
HLA-B*46:01 [15] = assay: IEDB peptide-MHC binding, purified MHC/competitive/fluorescence; filed as Kd, often an IC50 or EC50 that approximates it; ≥ and ≤ were set here for values at or beyond the usual limits of such assays; settings: source organism: Vibrio cholerae 2740-80
HLA-A*29:02 [16] = assay: as above; settings: source organism: Vibrio cholerae 2740-80
HLA-B*27:03 [17] = assay: as above; settings: source organism: Vibrio cholerae 2740-80
HLA-A*02:01 [18] = assay: as above; settings: source organism: Vibrio cholerae 2740-80
HLA-B*15:17 [19] = assay: as above; settings: source organism: Vibrio cholerae 2740-80
HLA-A*24:03 [20] = assay: as above; settings: source organism: Vibrio cholerae 2740-80
HLA-A*26:01 [21] = assay: as above
HLA-B*57:01 [22] = assay: as above; settings: source organism: Vibrio cholerae 2740-80
HLA-A*02:12 [23] = assay: as above; settings: source organism: Vibrio cholerae 2740-80
HLA-A*68:02 [24] = assay: as above; settings: source organism: Vibrio cholerae 2740-80
HLA-A*69:01 [25] = assay: as above; settings: source organism: Vibrio cholerae 2740-80
HLA-B*15:01 [26] = assay: as above
HLA-B*51:01 [27] = assay: as above; settings: source organism: Vibrio cholerae 2740-80
HLA-A*02:11 [28] = assay: as above; settings: source organism: Vibrio cholerae 2740-80
HLA-B*18:01 [29] = assay: as above; settings: source organism: Vibrio cholerae 2740-80
HLA-B*39:01 [30] = assay: as above; settings: source organism: Vibrio cholerae 2740-80
HLA-A*29:02 [31] = assay: IEDB peptide-MHC binding, purified MHC/direct/fluorescence; filed as Kd, often an IC50 or EC50 that approximates it; ≥ and ≤ were set here for values at or beyond the usual limits of such assays; settings: source organism: Brucella suis 1330
HLA-B*15:17 [32] = assay: as above; settings: source organism: Brucella suis 1330
HLA-A*24:03 [33] = assay: as above; settings: source organism: Brucella suis 1330
HLA-A*02:11 [34] = assay: as above; settings: source organism: Brucella suis 1330
HLA-A*01:01 = assay: IEDB peptide-MHC binding, purified MHC/competitive/fluorescence; filed as Kd, often an IC50 or EC50 that approximates it; ≥ and ≤ were set here for values at or beyond the usual limits of such assays
HLA-B*35:01 = assay: as above
[35] = source organism: Vibrio parahaemolyticus AQ3810
[36] = source organism: Powassan virus
[37] = source organism: Escherichia coli O157:H7
[38] = source organism: Vibrio cholerae 2740-80
[39] = source organism: Brucella suis 1330
[40] = source organism: Yersinia pestis Nepal516
[41] = source organism: Salmonella enterica subsp. enterica serovar Typhi

## RLDKPLWLH
HLA-B*46:01 [1]; [35]
  Kd: ≥ 20 µM
HLA-B*27:03 [2]; [35]
  Kd: ≥ 20 µM
HLA-A*02:01 [3]; [35]
  Kd: ≥ 20 µM
HLA-A*02:03; [35]
  Kd: ≥ 20 µM
HLA-A*26:01 [4]; [35]
  Kd: ≥ 20 µM
HLA-B*57:01 [5]; [35]
  Kd: ≥ 20 µM
HLA-A*02:12 [6]; [35]
  Kd: ≥ 20 µM
HLA-A*02:16; [35]
  Kd: ≥ 20 µM
HLA-A*02:19; [35]
  Kd: ≥ 20 µM
HLA-A*68:02 [7]
  Kd: ≥ 20 µM
HLA-A*69:01 [8]; [35]
  Kd: ≥ 20 µM
HLA-B*15:01 [9]; [35]
  Kd: ≥ 20 µM
HLA-B*51:01 [10]
  Kd: ≥ 20 µM
HLA-B*18:01 [11]; [35]
  Kd: ≥ 20 µM
HLA-B*39:01 [12]; [35]
  Kd: ≥ 20 µM

## TRALVRTGM
HLA-B*27:05; source organism: Influenza A virus (A/swine/Italy/1509-6/97(H1N1))
  Kd: 0.0083 µM

## KLKLKGTTY
HLA-A*11:01; [36]
  Kd: ≥ 20 µM
HLA-A*03:01 [13]; [36]
  Kd: 0.0684 µM
HLA-A*31:01; [36]
  Kd: 2.15 µM

## MIYMGLWLK
HLA-A*03:01 [14]; [37]
  Kd: 0.119 µM
HLA-A*11:01; [37]
  Kd: 0.0047 µM
HLA-A*31:01; source organism: Escherichia coli O157:H7 str. Sakai
  Kd: 0.139 µM

## FRAQTKGKV
HLA-B*27:05; source organism: Escherichia coli 536
  Kd: 0.0867 µM

## KRIGASLAH
HLA-B*27:05; source organism: Mycobacterium tuberculosis H37Rv
  Kd: 0.171 µM

## GKLKYRASY
HLA-B*27:05; source organism: Campylobacter jejuni subsp. jejuni NCTC 11168 = ATCC 700819
  Kd: 4.41 µM

## LLDEPTNHL
HLA-C*03:03
  Kd: 2.91 µM
HLA-C*05:01
  Kd: 0.008 µM
HLA-A*69:01 [8]; source organism: Bacillus anthracis
  Kd: 0.105 µM

## VMYNLWKMK
HLA-A*11:01; source organism: Yellow fever virus 17D
  Kd: 0.0063 µM
HLA-A*31:01; source organism: Yellow fever virus
  Kd: 0.00567 µM

## VQPWLMVDV
HLA-A*03:01 [13]; [38]
  Kd: ≥ 20 µM
HLA-B*46:01 [15]
  Kd: ≥ 20 µM
HLA-A*29:02 [16]
  Kd: ≥ 20 µM
HLA-B*27:03 [17]
  Kd: ≥ 20 µM
HLA-A*02:01 [18]
  Kd: ≥ 20 µM
HLA-B*15:17 [19]
  Kd: ≥ 20 µM
HLA-A*24:03 [20]
  Kd: ≥ 20 µM
HLA-A*26:01 [21]; [38]
  Kd: ≥ 20 µM
HLA-B*57:01 [22]
  Kd: ≥ 20 µM
HLA-A*02:12 [23]
  Kd: 1.17 µM
HLA-A*68:02 [24]
  Kd: ≥ 20 µM
HLA-A*69:01 [25]
  Kd: ≥ 20 µM
HLA-B*15:01 [26]; [38]
  Kd: ≥ 20 µM
HLA-B*51:01 [27]
  Kd: ≥ 20 µM
HLA-A*02:11 [28]
  Kd: 0.119 µM
HLA-B*18:01 [29]
  Kd: ≥ 20 µM
HLA-B*39:01 [30]
  Kd: ≥ 20 µM

## QAHMGIAGL
HLA-A*03:01 [14]; [39]
  Kd: ≥ 20 µM
HLA-B*46:01 [1]; [39]
  Kd: ≥ 20 µM
HLA-A*29:02 [31]
  Kd: ≥ 20 µM
HLA-B*27:03 [2]; [39]
  Kd: ≥ 20 µM
HLA-A*02:01 [3]; [39]
  Kd: ≥ 20 µM
HLA-A*02:03; [39]
  Kd: ≥ 20 µM
HLA-B*15:17 [32]
  Kd: 0.003 µM
HLA-A*24:03 [33]
  Kd: ≥ 20 µM
HLA-A*26:01 [4]; [39]
  Kd: ≥ 20 µM
HLA-B*57:01 [5]; [39]
  Kd: ≥ 20 µM
HLA-A*02:12 [6]; [39]
  Kd: ≥ 20 µM
HLA-A*02:16; [39]
  Kd: ≥ 20 µM
HLA-A*02:19; [39]
  Kd: ≥ 20 µM
HLA-B*15:01 [9]; [39]
  Kd: ≥ 20 µM
HLA-A*02:11 [34]
  Kd: ≥ 20 µM
HLA-B*18:01 [11]; [39]
  Kd: ≥ 20 µM
HLA-B*39:01 [12]; [39]
  Kd: ≥ 20 µM

## FVMSCKLLY
HLA-A*03:01 [13]; [40]
  Kd: 1.85 µM
HLA-A*01:01; [40]
  Kd: 0.7 µM
HLA-A*26:01 [21]; [40]
  Kd: 0.327 µM
HLA-B*35:01; [40]
  Kd: 0.0035 µM

## ISANANFSY
HLA-A*03:01 [13]; [41]
  Kd: ≥ 20 µM
HLA-A*01:01; [41]
  Kd: 0.0288 µM
HLA-B*35:01; [41]
  Kd: 0.0247 µM
HLA-B*15:01 [26]; [41]
  Kd: 0.21 µM
